Data from US20120207760A1 (THERACLONE SCIENCES, published 2012).

Key:
[1] = biological target: T1, hemagglutinin (HA) of influenza A/Solomon Islands/3/06 H1N1 (Influenza A virus A/Solomon …); experiment: ELISA, inactivated whole virions coated; transfection supernatant set 2
[2] = biological target: T2, hemagglutinin (HA) of influenza A/Japan/305/57 H2N2 (Influenza A virus A/Japan/305/1957 …, UniProt P03451 16-562); experiment: as above
[3] = biological target: T1, hemagglutinin (HA) of influenza …; experiment: ELISA, inactivated whole virions coated; transfection supernatant set 1
[4] = biological target: T2, hemagglutinin (HA) of influenza …; experiment: as above
[5] = biological target: T1, hemagglutinin (HA) of influenza …; experiment: cell-based or functional assay
[6] = biological target: T1, hemagglutinin (HA) of influenza …; experiment: ELISA, inactivated whole virions coated; transfection supernatant set 4
[7] = biological target: T2, hemagglutinin (HA) of influenza …; experiment: as above
[8] = biological target: T1, hemagglutinin (HA) of influenza …; experiment: ELISA, inactivated whole virions coated; transfection supernatant set 5
[9] = biological target: T2, hemagglutinin (HA) of influenza …; experiment: as above
[10] = biological target: T1, hemagglutinin (HA) of influenza …; experiment: ELISA, inactivated whole virions coated; transfection supernatant set 3
[11] = biological target: T2, hemagglutinin (HA) of influenza …; experiment: as above
[12] = biological target: recombinant homotrimeric HA, A/Japan/305/57 H2N2 (Influenza A virus A/Japan/305/57 (H2N2)); experiment: trimeric HA microarray, transfection set 5
[13] = biological target: recombinant homotrimeric HA, A/Solomon Islands/3/06 H1N1 (Influenza A virus A/Solomon …); experiment: trimeric HA microarray, transfection set 5
[14] = biological target: recombinant homotrimeric HA, A/South Carolina/1/18 H1N1 (Influenza A virus A/South Carolina/1/18 …); experiment: trimeric HA microarray, transfection set 5
[15] = biological target: recombinant homotrimeric HA, A/Vietnam/1203/04 H5N1 (Influenza A virus A/Vietnam/1203/04 …); experiment: trimeric HA microarray, transfection set 5
[16] = biological target: recombinant homotrimeric HA, A/California/4/09 H1N1 (Influenza A virus A/California/4/09 …); experiment: trimeric HA microarray, transfection set 5
[17] = biological target: recombinant homotrimeric HA, A/Wisconsin/67/05 H3N2 (Influenza A virus A/Wisconsin/67/05 …); experiment: trimeric HA microarray, transfection set 5
[18] = biological target: recombinant homotrimeric HA, A/Indonesia/5/05 H5N1 (Influenza A virus A/Indonesia/5/05 …); experiment: trimeric HA microarray, transfection set 5
[19] = biological target: recombinant homotrimeric HA, A/swine/Ontario/01911-2/99 H4N6 (Influenza A virus …); experiment: trimeric HA microarray, transfection set 5
[20] = biological target: hemagglutinin (HA) on live influenza A virus A/California/4/09 H1N1 (Influenza A virus A/California/04/2009 …); experiment: cell-based or functional assay
[21] = biological target: hemagglutinin (HA) on live influenza A virus A/Solomon Islands/3/06 H1N1 (Influenza A virus A/Solomon …); experiment: cell-based or functional assay
[22] = biological target: hemagglutinin (HA) on live influenza A virus A/Wisconsin/67/05 H3N2 (Influenza A virus A/Wisconsin/67/2005 …); experiment: cell-based or functional assay
[23] = biological target: T3, M2 protein of A/Puerto Rico/8/34 (H1N1), on virus particles, infected MDCK cells or transfected cells (influenza A virus A/Puerto Rico/8/34 …, UniProt P06821 1-97); experiment: ELISA on purified A/Puerto Rico/8/34 virus (FIG. 14a)
T3 construct: whole, on cells

B1: TCN-523 (5248_A17) (antibody, V domains shown)
VH: QVQLVQSGAEVKKPGSSVKVSCKASGGSFSNYAFSWVRQAPGQGLEWMGGTIPLLGTTNYAQKFQGRVTISADQFTSTAYMELGSLRSEDTAVYYCTRRKMTTAFDSWGQGTLVTVSS
VL: QPVLTQPPSASASLGASVTLTCTLSSAYSNYKVDWYQQRPGKGPRFVMRVGTGGIVGSKGDGIPDRFSVLGSGLNRYLTIKNIQEEDESDYHCGADHGSGSNFVSPYVFGGGTKLTVL
- OD450 [1]: 3.67 OD450
- OD450 [2]: 1.39 OD450
- OD450 [3]: 3.59 OD450
- OD450 [4]: 1.69 OD450
- % Neutralization [5]: 69%
- OD450 [6]: 3.43 OD450
- OD450 [7]: 1.73 OD450
- OD450 [8]: 3.62 OD450
- OD450 [9]: 2.56 OD450
- OD450 [10]: 3.59 OD450
- OD450 [11]: 3.47 OD450

B2: TCN-560 (5084_P10) (antibody, V domains shown)
VH: EVQLVESGGGLVQPGGSLRLSCAASGFIFRNYWMSWVRQAPGKGLEWVANIKQDGREKYYVDSLRGRVNISRDNAENSLYLHMNSLRVEDTAVYFCARARMVVVTGDGFDVWGHGTMVTVSS
VL: DIQMTQSPSSLSASVGDRVTITCRASQNIKRYFNWYQQKPGKAPKLLIYAASNLENGVPSRFSGSGSGTDFTLTISSLQPEDFATYYCQQSFSKSWTFGQGTNVDIK
- Trimeric HA Binding RLU [12]: 25900 RLU
- Trimeric HA Binding RLU [13]: 22400 RLU
- Trimeric HA Binding RLU [14]: 30500 RLU
- Trimeric HA Binding RLU [15]: 19500 RLU
- Trimeric HA Binding RLU [16]: 31100 RLU
- Trimeric HA Binding RLU [17]: 55400 RLU
- Trimeric HA Binding RLU [18]: 17000 RLU
- Trimeric HA Binding RLU [19]: 16800 RLU

B3: TCN-556 (5089_K12) (antibody, V domains shown)
VH: QVQLVQSGAEVKKPGASVKVSCKASGYTFIGYDMHWVRQAPGQGLEWMGWINAKRGGTNYAQKFQGRVTMTRDTSISTAYMELNSLRSDDTAVYYCARGVGSRTTIFGVLNPEFDYWGQGTLVTVSS
VL: QSALTQPPSASGSPGQSVTISCTGSSSDVGGYDYVSWYQQHPGKAPKLLIYEVTKRPSGVPDRFSGSKSGNTASLTVSGLQAEDEADYYCSSYAGNYNHVFGPGTKVTVL
- Trimeric HA Binding RLU [12]: 22800 RLU
- Trimeric HA Binding RLU [13]: 23400 RLU
- Trimeric HA Binding RLU [14]: 32700 RLU
- Trimeric HA Binding RLU [15]: 17400 RLU
- Trimeric HA Binding RLU [16]: 20900 RLU
- Trimeric HA Binding RLU [17]: 44700 RLU
- Trimeric HA Binding RLU [18]: 15200 RLU
- Trimeric HA Binding RLU [19]: 19300 RLU

B4: TCN-546 (5089_L08) (antibody, V domains shown)
VH: QVQLQQWGAGLLKPSETLSLTCGVYGGSLSDYYWSWIRQPPGKGLEWIGEINHSGGTNYNPSLKRRVTISVDTSKKQFSLKMNSVTAADTAVYYCARGTDPDTEVYCRAGNCAAFDFWGQGTLVTVSS
VL: EIVLTQSPGTLSLSPGERATLSCRASHFVIGRAVAWYQQKPGQAPRLLIYGASSRATGIPDRFSGSGSGTDFTLTISRLETEDFAVFYCQHYGSSPRYAFGQGTKLEIK
- % Neutralization [20]: 0%
- % Neutralization [21]: 98%
- % Neutralization [22]: 100%

B5: TCN-504 (3251_K17) (antibody, V domains shown)
VH: QVQLQESGPGLVKPSETLSLTCAVSGVSISNIDFYWGWIRQPPGKGLEWIGNIYYTGITFYNPSLSSRVAISIDTSKNQFSLTLTSVTAADTAMYYCARHYGDSEAINDAFDIWGQGTMLTVSS
VL: EIVMTQSPATLSVSPGERATLSCRASQSVGNSLAWYQQRPGQAPRLLIYGASTRATGIPPRFSGSGSGTEFTLTISSLQTEDFAVYYCQQYINWRPLSFGGGTKVEIK
- OD450 [1]: 3.65 OD450
- OD450 [2]: 3.62 OD450
- OD450 [3]: 3.65 OD450
- OD450 [4]: 3.65 OD450
- OD450 [6]: 3.52 OD450
- OD450 [7]: 3.51 OD450
- OD450 [8]: 3.6 OD450
- OD450 [9]: 3.59 OD450
- OD450 [10]: 3.63 OD450
- OD450 [11]: 3.64 OD450

B6: TCN-031 (23K12) (antibody, V domains shown)
VH: EVQLVESGGGLVQPGGSLRISCAASGFTVSSNYMSWVRQAPGKGLEWVSVIYSGGSTYYADSVKGRFSFSRDNSKNTVFLQMNSLRAEDTAVYYCARCLSRMRGYGLDVWGQGTTVTVSS
VL: DIQMTQSPSSLSASVGDRVTITCRTSQSISSYLNWYQQKPGKAPKLLIYAASSLQSGVPSRFSGSGSGTDFTLTISGLQPEDFATYYCQQSYSMPAFGQGTKLEIK
- EC50 [23]: ~0.1 µg/mL

B7: TCN-032 (8I10) (antibody, V domains shown)
VH: QVQLQESGPGLVKPSETLSLTCTVSGSSISNYYWSWIRQSPGKGLEWIGFIYYGGNTKYNPSLKSRVTISQDTSKSQVSLTMSSVTAAESAVYFCARASCSGGYCILDYWGQGTLVTVSS
VL: DIQMTQSPSSLSASVGDRVTITCRASQNIYKYLNWYQQRPGKAPKGLISAASGLQSGVPSRFSGSGSGTDFTLTITSLQPEDFATYYCQQSYSPPLTFGGGTRVEIK
- EC50 [23]: ~0.1 µg/mL
